What was measured:
[1] = molecular target: Hsc70 chaperones of the rabbit reticulocyte lysate (rabbit (endogenous in rabbit reticulocyte lysate)); experiment: co-IP; AGT variants made with 35S-Met in rabbit reticulocyte lysate (TnT) at 30°C for 2 h, stopped with cycloheximide; immunoprecipitation with anti-Hsc70 antibodies; SDS-PAGE and fluorography
[2] = substrate: C[C@H](N)C(=O)O; experiment: LDH-coupled pyruvate assay, global double-displacement fit; type: biochemical, Homo sapiens; details: glyoxylate 0-5 mM, 150 µM PLP, 0.1 M Na-phosphate pH 8, 25°C
Excerpt: (§1) LDH-coupled pyruvate assay, global double-displacement fit on alanine:glyoxylate aminotransferase (AGT), AGT WT (major allele)

[3] = substrate: O=CC(=O)O; experiment: as above; type: biochemical, Homo sapiens; details: L-alanine 0-100 mM, 150 µM PLP, 0.1 M Na-phosphate pH 8, 25°C
Excerpt: as §1

[4] = molecular target: the molecule itself; experiment: SEC; purified recombinant AGT variants; single peak, elution volume of a ≈90 kDa dimer; data not shown

Row | fold increase in immunoprecipitated AGT compared to WT [1] | Molecule | Km [2] | Km [3] | stoichiometry N [4]
1 | 4.8 fold | alanine:glyoxylate aminotransferase p.H83R on the minor allele, made in a cell-free system (from UniProt P21549 1-392) (enzyme) |  |  | 
2 | 4 fold | alanine:glyoxylate aminotransferase minor allele (p.P11L/I340M), made in a cell-free system (from UniProt P21549 1-392) (enzyme) |  |  | 
3 | 7 fold | alanine:glyoxylate aminotransferase p.P319L on the minor allele, made in a cell-free system (from UniProt P21549 1-392) (enzyme) |  |  | 
4 | 4 fold | alanine:glyoxylate aminotransferase p.P11L, made in a cell-free system (from UniProt P21549 1-392) (enzyme) |  |  | 
5 |  | alanine:glyoxylate aminotransferase, wild type (major allele), recombinant His-tagged (enzyme, human, alanine:glyoxylate aminotransferase (AGT), human, major allele; also called AGT WT; WT; source: E. coli BL21 (pCOLDII), purified (IMAC, SEC)) MASHKLLVTPPKALLKPLSIPNQLLLGPGPSNLPPRIMAAGGLQMIGSMSKDMYQIMDEIKEGIQYVFQTRNPLTLVISGSGHCALEAALVNVLEPGDSFLVGANGIWGQRAVDIGERIGARVHPMTKDPGGHYTLQEVEEGLAQHKPVLLFLTHGESSTGVLQPLDGFGELCHRYKCLLLVDSVASLGGTPLYMDRQGIDILYSGSQKALNAPPGTSLISFSDKAKKKMYSRKTKPFSFYLDIKWLANFWGCDDQPRMYHHTIPVISLYSLRESLALIAEQGLENSWRQHREAAAYLHGRLQALGLQLFVKDPALRLPTVTTVAVPAGYDWRDIVSYVIDHFDIEIMGGLGPSTGKVLRIGLLGCNATRENVDRVTEALRAALQHCPKKKL | 19.5 ± 1.4 mM | 0.245 ± 0.029 mM | 2
6 |  | alanine:glyoxylate aminotransferase p.A295T on the minor allele, recombinant His-tagged (enzyme, human, UniProt P21549 1-392, looked up, alanine:glyoxylate aminotransferase (AGT), human, rare variant p.A295T in the minor allele; source: E. coli BL21 (pCOLDII), purified (IMAC, SEC)) MASHKLLVTPLKALLKPLSIPNQLLLGPGPSNLPPRIMAAGGLQMIGSMSKDMYQIMDEIKEGIQYVFQTRNPLTLVISGSGHCALEAALVNVLEPGDSFLVGANGIWGQRAVDIGERIGARVHPMTKDPGGHYTLQEVEEGLAQHKPVLLFLTHGESSTGVLQPLDGFGELCHRYKCLLLVDSVASLGGTPLYMDRQGIDILYSGSQKALNAPPGTSLISFSDKAKKKMYSRKTKPFSFYLDIKWLANFWGCDDQPRMYHHTIPVISLYSLRESLALIAEQGLENSWRQHREATAYLHGRLQALGLQLFVKDPALRLPTVTTVAVPAGYDWRDIVSYVMDHFDIEIMGGLGPSTGKVLRIGLLGCNATRENVDRVTEALRAALQHCPKKKL |  |  | 2
7 |  | alanine:glyoxylate aminotransferase p.H83R on the minor allele, recombinant His-tagged (enzyme, human, UniProt P21549 1-392, looked up, alanine:glyoxylate aminotransferase (AGT), human, PH1 mutation p.H83R in the minor allele; source: E. coli BL21 (pCOLDII), purified (IMAC, SEC)) MASHKLLVTPLKALLKPLSIPNQLLLGPGPSNLPPRIMAAGGLQMIGSMSKDMYQIMDEIKEGIQYVFQTRNPLTLVISGSGRCALEAALVNVLEPGDSFLVGANGIWGQRAVDIGERIGARVHPMTKDPGGHYTLQEVEEGLAQHKPVLLFLTHGESSTGVLQPLDGFGELCHRYKCLLLVDSVASLGGTPLYMDRQGIDILYSGSQKALNAPPGTSLISFSDKAKKKMYSRKTKPFSFYLDIKWLANFWGCDDQPRMYHHTIPVISLYSLRESLALIAEQGLENSWRQHREAAAYLHGRLQALGLQLFVKDPALRLPTVTTVAVPAGYDWRDIVSYVMDHFDIEIMGGLGPSTGKVLRIGLLGCNATRENVDRVTEALRAALQHCPKKKL | 42.4 ± 2.4 mM | 0.156 ± 0.019 mM | 2
8 |  | alanine:glyoxylate aminotransferase minor allele (p.P11L/I340M), recombinant His-tagged (enzyme, human, UniProt P21549 1-392, looked up, alanine:glyoxylate aminotransferase (AGT), human, minor allele; also called AGT LM; LM; source: E. coli BL21 (pCOLDII), purified (IMAC, SEC)) MASHKLLVTPLKALLKPLSIPNQLLLGPGPSNLPPRIMAAGGLQMIGSMSKDMYQIMDEIKEGIQYVFQTRNPLTLVISGSGHCALEAALVNVLEPGDSFLVGANGIWGQRAVDIGERIGARVHPMTKDPGGHYTLQEVEEGLAQHKPVLLFLTHGESSTGVLQPLDGFGELCHRYKCLLLVDSVASLGGTPLYMDRQGIDILYSGSQKALNAPPGTSLISFSDKAKKKMYSRKTKPFSFYLDIKWLANFWGCDDQPRMYHHTIPVISLYSLRESLALIAEQGLENSWRQHREAAAYLHGRLQALGLQLFVKDPALRLPTVTTVAVPAGYDWRDIVSYVMDHFDIEIMGGLGPSTGKVLRIGLLGCNATRENVDRVTEALRAALQHCPKKKL | 19.8 ± 1.5 mM |  | 2

Source: paper PMC3796444 (PLoS ONE, 2013)
